The target of assay [1] is T1, human JAG1 on cells (K562 cells; Calu-6 cells) (human, UniProt P78504 34-1218).
T1 construct: whole, on cells; Calu-6 are called JAG-1 expressing cells; also called JAG-1 expressing cells
Nature of the assay: flow cytometry on K562 cells, IgG titrated, PE anti-human IgG, median fluorescence. As for the experimental part: This example describes a cellular binding assay to determine the EC₅₀ for certain anti-JAG1 antibodies binding to K562 cells (ATCC CCL-243), where the concentration at which 50% binding saturation (EC₅₀) is reached. In this example, K562 cells were resuspended in FACS Buffer (2% Fetal Bovine Serum in PBS) at 1×10⁶ cells/ml. 50 μl (0.5×10⁵ cells) were aliquoted into the wells of a 96-well plate. Plated cells were spun down and the supernatant discarded. Cells were resuspended in serially diluted concentrations of each JAG1 IgG in 30 μl FACS Buffer done in triplicate. The antibodies and cells were incubated for 1 hr at 4° C. and then washed 2× with FACS Buffer. Cells were resuspended in 50 μl goat anti-human IgG (γ-chain specific)-PE-conjugated secondary antibody (Southern Biotech #2040-09) diluted 1:750 in FACS Buffer. Cells were further incubated in the dark for 30 min at 4° C. and then washed 1× with FACS Buffer. The cells were resuspended in a final volume of 30 μl FACS Buffer and analyzed using an Intellicyt Flow Cytometer. Median fluorescence in the FL-2H channel was determined using FlowJo software and EC₅₀ value was determined by a variable slope non-linear regression using ForeCyte software.
On the technique in general: A flow cytometer gives signals particle by particle.

Assay [2] addresses T2, human JAG2-Fc (human, UniProt Q9Y219 24-1080, limits assumed).
T2 construct: not shown: Fc
Nature of the assay: ELISA: plate coated with human JAG2-Fc, serially diluted IgG, labeled goat anti-human Fd antibody, absorbance. The procedure: An ELISA assay was also carried out to determine the ability of the identified antibodies to bind to human JAG2. A 96-well ELISA plate was coated with human JAG2-Fc overnight. The next morning the plate was blocked with casein solution for 1 hour, followed by addition of serially diluted JG1H7 and JG1B10 IgG antibodies. As a control, antibodies were added to wells that were not coated with JAG2-Fc. After incubating for an hour, the plate was washed and labeled goat anti-human FD antibody was added for 30 minutes. The plate was washed, developed with substrate and the absorbance in each well measured on a spectrophotometer.
On the technique in general: ELISA stands for enzyme-linked immunosorbent assay.

Assay [3] addresses T3, biotinylated human delta-like 1 (DLL1) (human, UniProt O00548 18-540, limits assumed, biotinylated (sites not given)).
T3 sequence (looked up): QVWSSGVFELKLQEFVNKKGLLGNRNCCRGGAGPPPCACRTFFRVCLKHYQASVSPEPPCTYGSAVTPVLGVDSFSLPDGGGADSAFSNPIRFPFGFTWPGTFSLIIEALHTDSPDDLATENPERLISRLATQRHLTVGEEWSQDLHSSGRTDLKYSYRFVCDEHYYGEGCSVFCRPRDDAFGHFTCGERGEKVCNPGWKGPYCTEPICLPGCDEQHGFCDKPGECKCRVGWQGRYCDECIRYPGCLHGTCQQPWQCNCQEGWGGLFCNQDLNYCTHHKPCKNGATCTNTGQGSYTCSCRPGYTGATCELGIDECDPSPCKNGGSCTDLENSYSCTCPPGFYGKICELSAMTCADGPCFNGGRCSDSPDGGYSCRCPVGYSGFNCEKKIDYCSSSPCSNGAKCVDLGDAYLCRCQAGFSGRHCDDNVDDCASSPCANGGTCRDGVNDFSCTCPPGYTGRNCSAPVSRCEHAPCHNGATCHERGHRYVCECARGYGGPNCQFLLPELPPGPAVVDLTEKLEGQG
In words: capture ELISA: JG1H7 IgG captured on anti-human kappa, serially diluted biotinylated DLL1, neutravidin-AP, PNPP, absorbance. As for the experimental part: (§1) Finally, an ELISA assay was carried out to determine antibody cross-reactivity to delta-like 1 (DLL1) and delta-like 2 (DLL2). One ELISA plate was coated with anti-human lambda and another ELISA plate was coated with anti-human kappa overnight at 4° C. The next morning each plate was blocked with a 1:1 mixture of casein:Super Block for 2 hours at room temperature. The B10 IgG was diluted to 0.3 μg/ml in block and added to the anti-human lambda coated wells, while the JG1H7 IgG was diluted to 0.3 μg/ml in block and added to the anti-human kappa coated wells and incubated at room temperature for 3 hours. As a control, other wells were treated with only block. After washing, serially-diluted biotinylated antigen (JAG1, DLL1, DLL2) was added to a column with captured antibody and a control column with no antibody, and incubated 1 hour at room temperature. After washing, neutravidin-AP was added, incubated for 20 min at room temperature, the plate washed and developed with 1-step PNPP, and the plate analyzed in a plate reader.

The target in assay [4] is T1, human JAG1 on cells (K562 cells; Calu-6 …). In words: cell-based or functional assay.
The target of assay [5] is T4, Recombinant human JAG1/His (human, UniProt P78504 34-1046, limits assumed).
T4 construct: Analyte of the BiaCore assay; also called human JAW [sic]; not shown: His tag
In words: SPR (BiaCore), antibody captured on anti-human Fc CM5 chip, JAG1/His as analyte, 1:1 Langmuir fit. As for the experimental part: The binding affinity of antibody JG1H7 for human JAG1 was tested using a BiaCore assay. Specifically, anti-human Fc antibody (GE, BR-1008-39) was immobilized on a CM5 sensor chip to approximately 700 RU using standard NHS/EDC coupling methodology. Antibodies (about 10 μg/ml) were captured for 60 s at a flow rate 10 μl/min. Recombinant human JAG1/His was serially diluted in running buffer (HBS-EP). All measurements were conducted with a flow rate of 30 μL/min Surfaces were regenerated with 3M MgCl₂ for 60 s. A 1:1 (Langmuir) binding model was used to fit the data.
Background: Surface plasmon resonance follows binding to a sensor surface in real time, without labels.

The target of assay [6] is T3, biotinylated human delta-like 1 (DLL1). Nature of the assay: capture ELISA: B10 IgG captured on anti-human lambda, serially diluted biotinylated DLL1, neutravidin-AP, PNPP, absorbance. The procedure:
as §1

As a reminder, the EC50 is the concentration at which the effect is half-maximal. For orientation: EC50 (read off the curve) means the midpoint of the concentration-response curve. One may read the Kd as the free concentration of one partner at which half of the binding sites on the other are occupied at equilibrium, for simple one-to-one binding. What is called koff is the rate constant with which the complex falls apart. A word on the kon: it is the second-order rate constant of association.

T1 sequence (P78504 34-1218): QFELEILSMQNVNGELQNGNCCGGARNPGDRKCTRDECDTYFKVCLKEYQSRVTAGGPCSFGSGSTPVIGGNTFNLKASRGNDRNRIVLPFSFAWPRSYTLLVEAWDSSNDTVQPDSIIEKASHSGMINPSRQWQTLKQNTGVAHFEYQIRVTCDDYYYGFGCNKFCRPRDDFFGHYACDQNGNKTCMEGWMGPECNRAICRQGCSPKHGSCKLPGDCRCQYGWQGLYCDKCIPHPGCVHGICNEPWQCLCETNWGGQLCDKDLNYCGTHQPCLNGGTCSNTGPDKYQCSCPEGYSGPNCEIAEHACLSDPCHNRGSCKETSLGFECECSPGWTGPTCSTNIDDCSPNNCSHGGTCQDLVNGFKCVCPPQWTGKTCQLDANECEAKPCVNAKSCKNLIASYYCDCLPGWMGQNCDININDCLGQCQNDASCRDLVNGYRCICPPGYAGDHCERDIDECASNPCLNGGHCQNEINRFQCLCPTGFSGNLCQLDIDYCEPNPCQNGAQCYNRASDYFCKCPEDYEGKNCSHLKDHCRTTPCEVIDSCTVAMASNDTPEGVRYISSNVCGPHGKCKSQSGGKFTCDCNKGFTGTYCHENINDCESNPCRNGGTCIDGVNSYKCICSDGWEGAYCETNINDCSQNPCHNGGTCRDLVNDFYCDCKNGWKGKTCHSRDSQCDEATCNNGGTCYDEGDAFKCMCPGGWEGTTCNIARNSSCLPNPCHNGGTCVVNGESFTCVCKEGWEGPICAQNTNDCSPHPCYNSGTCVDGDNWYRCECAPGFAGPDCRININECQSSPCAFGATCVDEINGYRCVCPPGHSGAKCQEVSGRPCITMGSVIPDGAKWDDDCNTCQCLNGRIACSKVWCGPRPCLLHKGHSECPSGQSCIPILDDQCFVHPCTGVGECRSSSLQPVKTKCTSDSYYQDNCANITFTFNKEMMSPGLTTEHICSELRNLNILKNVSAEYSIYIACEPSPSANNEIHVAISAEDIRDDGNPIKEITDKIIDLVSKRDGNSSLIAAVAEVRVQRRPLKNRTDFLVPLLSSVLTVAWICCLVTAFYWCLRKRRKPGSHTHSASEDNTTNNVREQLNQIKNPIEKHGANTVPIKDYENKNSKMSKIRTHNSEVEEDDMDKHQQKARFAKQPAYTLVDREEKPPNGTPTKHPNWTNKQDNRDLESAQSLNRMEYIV
T2 sequence (Q9Y219 24-1080 limits assumed): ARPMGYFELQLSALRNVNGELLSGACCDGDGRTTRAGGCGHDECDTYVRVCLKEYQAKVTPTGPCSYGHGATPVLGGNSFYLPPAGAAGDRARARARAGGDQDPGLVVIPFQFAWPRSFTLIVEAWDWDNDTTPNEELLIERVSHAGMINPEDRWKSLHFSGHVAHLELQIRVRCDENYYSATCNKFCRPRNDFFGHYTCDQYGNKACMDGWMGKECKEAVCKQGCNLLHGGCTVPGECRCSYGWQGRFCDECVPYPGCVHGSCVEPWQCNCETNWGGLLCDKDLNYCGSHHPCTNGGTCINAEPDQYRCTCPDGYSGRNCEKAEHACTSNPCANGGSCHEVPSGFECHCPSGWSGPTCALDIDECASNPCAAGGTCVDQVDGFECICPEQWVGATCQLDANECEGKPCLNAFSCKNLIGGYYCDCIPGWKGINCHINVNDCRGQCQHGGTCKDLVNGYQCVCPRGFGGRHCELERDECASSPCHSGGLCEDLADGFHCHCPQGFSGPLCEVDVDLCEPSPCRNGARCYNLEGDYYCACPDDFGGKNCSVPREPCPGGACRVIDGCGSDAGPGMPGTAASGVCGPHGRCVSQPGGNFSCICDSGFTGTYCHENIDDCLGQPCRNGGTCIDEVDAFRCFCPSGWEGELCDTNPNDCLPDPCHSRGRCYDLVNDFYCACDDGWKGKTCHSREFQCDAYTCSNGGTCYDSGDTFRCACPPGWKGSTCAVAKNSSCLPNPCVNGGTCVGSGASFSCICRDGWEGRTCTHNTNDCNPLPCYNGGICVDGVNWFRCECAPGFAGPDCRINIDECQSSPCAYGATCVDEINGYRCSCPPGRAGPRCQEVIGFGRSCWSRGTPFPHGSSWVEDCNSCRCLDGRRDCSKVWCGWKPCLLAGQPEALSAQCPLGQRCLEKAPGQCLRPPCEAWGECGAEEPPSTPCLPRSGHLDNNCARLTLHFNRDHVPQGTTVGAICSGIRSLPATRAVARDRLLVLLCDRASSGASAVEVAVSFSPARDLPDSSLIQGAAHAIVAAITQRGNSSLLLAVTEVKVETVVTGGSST

B1: JG1A7 (antibody, V domains shown)
VH: QVQLVESGGGLVKPGGSLRLSCAASGFTFSDYYMSWIRQAPGKGLEWVSYISSSGSTIYYADSVKGRFTISRDNAKNSLYLQMNSLRAEDTAVYYCARVNSGYDAVDYWGQGTLVTVSS
VL: QSALTQPPSVSGAPGQTVTISCTGSRSNIGTYDVHWYQQFAGSAPKLLIYHNNDRSSGVPDRFSGSKSGTSASLAITGLQAEDEAVYFCQSHDNVLGGVFGGGTKLTVL
For the molecule B1, in assay [1], the EC50 was below 1 nM.

B2: JG1H7 (antibody, V domains shown)
VH: QVQLVQSGGGLIQPGGSLRLSCAASAFTVSNFYMTWVRQAPGKGLEWVSVIDSGGNTYYADSVRGRFTISRDNSKNTLFLQMNSLRAEDTAVYYCARDLGYYYAMDVWGQGTTVTVSS
VL: DIVMTQSPSSLSASVGDRVTITCRASQSISTSLNWYQQKPGKAPKLLIYAASSLQSGVPSRFSGSGSGTDFTLTISSLQPEDFATYYCQQSYSTPTFGQGTKLEIK
notes: captured by anti-human Fc in the BiaCore assay
With B2, the “EC50 (read off the curve)” value in assay [2] was around 0.1 µg/mL. The binding result in assay [3] is “no binding”. The “IC50 (nM) of killing of Calu-6 cells by the antibody pre-complexed with Protein G-DM1 (1:4), Cell Titer Glo after 6 days” value (“IC50 (nM) of killing of Calu-6 cells” below) in assay [4] is 3.89 nM. Besides, in assay [5], the Ka was found to be 4.8e+06 M⁻¹, the Kd stood at 208 nM, the dissociation rate constant (koff) was 0.0411 s⁻¹ and the kon turned out to be 197000 M⁻¹ s⁻¹. The molecule also had an EC50 in assay [1] of 16 nM.

B3: JH1F4 (antibody, V domains shown)
VH: QVQLVQSGAEVKKPGASVKVSCKASGYTFTSYAMHWVRHAPGQRLEWMGWINAGNGNTKYSQKFQGRVTITRDTSASTAYMELSSLRSEDTAVYYCARDLDYYYGMDVWGQGTTVTVSS
VL: QPVLTQPPSASGTPGQRVTISCSGSSSNIGSNIVNWYQQLPGTAPKLLIYSNNRRPSGVPDRFSGSKSGSSASLAISGLQSEDEADYYCAAWDATLGGLYVFGTGTKVTVL
notes: also called JH-F4
For B3, the EC50 in assay [1] worked out at 97 nM.

B4: JG1C8 (antibody, V domains shown)
VH: EVQLVQSGAEVKKPGSSVKVSCKASGGTFSSYAISWVRQAPGQGLEWMGWISAYNGNTNYAQKLQGRVTMTTDTSTSTAYMELRSLRSDDTAVYYCARSRYDFWSGYYSGMDVWGQGTTVTVSS
VL: NFMLTQPRSVSGSPGQSVTISCTGTSSDVGGYHYVSWYQQHPGKAPKLIIYDVSRRPSGVPDRFSGSKSGNTASLTVSGLQAEDEADYYCSSYGGSNNFVFGTGTKLTVL
Turning to B4, in assay [4], the “IC50 (nM) of killing of Calu-6 cells” value worked out at 87.3 nM. Further, the response in assay [1] was half-maximal at 16 nM (EC50).

B5: JG1H11 (antibody, V domains shown)
VH: EVQLVESGGGVVQPGRSLRLSCAASGFTFSSYGMHWVRQAPGKGLEWVAVISYDGSNKYYADSVKGRFTISRDNSKNTLYLQMNSLRAEDTAVYYCAKDDWNYALDYWGQGTLVTVSS
VL: QPVLTQPASVSGSPGQSITISCTGTRSDVGGYSYVSWYQQHPGKAPKLIYDVTKRPSGVSNRFSGSKSGNTASLTISGLQAEDEADYYCSSYTSSSTYVFGTGTKVTVL
In the case of B5, the “IC50 (nM) of killing of Calu-6 cells” value in assay [4] amounted to 26.5 nM. In addition, the EC50 in assay [1] is 27 nM.

B6: JG1B10 (antibody, V domains shown)
VH: EVQLVESGGGLVQPGGSLRLSCAASGSTFSSYGMHWVRQAPGKGLEWVAVIWYDGSNKYYADSVKGRFTISRDNSKNTLYLQMNSLRAEDTAVYYCARGYNHDYWGQGTLVTVSS
VL: LPVLTQPASVSGSPGQSITISCTGTSSDVGGYNYVSWYQQHPGKAPKLMIYDVSNRPSGVSNRFSGSKSGNTASLTISGLQAEDEADYYCSSYTSSSTYVFGIGTKLTVL
notes: also called B10JAG1
In the case of B6, in assay [4], the “IC50 (nM) of killing of Calu-6 cells” value amounted to 1.35 nM. Besides, the binding result in assay [6] is “no binding”. The molecule also showed an EC50 in assay [1] of 32 nM.
